The target in assay [1] is T1, cynomolgus CD40-Fc protein (cynomolgus, UniProt G7PG38 21-193).
T1 construct: not shown: Fc part
The assay can be described thus: BLI (ForteBio), CD40-Fc on AHQ sensor, 100 nM Fab in solution, monovalent, 1:1 model. The procedure:
(§1) The antigen-loaded sensor was incubated with 100 nM Fab solution until a plateau was reached, and then the sensor was transferred to the analysis buffer for at least 2 minutes for dissociation rate measurement. Kinetic analysis was performed using a 1:1 binding model.
(In general: Biolayer interferometry detects binding as a change in optical thickness at a sensor tip.)

Assay [2] concerns the target T2, human CD40-Fc protein (human, UniProt P25942 21-193).
T2 construct: also called human CD40-Fc fusion protein; CD40-Fc antigen; not shown: Fc part
The description is as above. The procedure: as §1

Assay [3] has as its target T3, human CD40 overexpressed on cells (human, UniProt P25942 21-277).
T3 construct: Cells transfected with human CD40 cDNA; also called CHO-huCD40 cells; CHO-S cells overexpressing human CD40
Description: flow cytometry on CHO-S cells overexpressing human CD40. On the procedure:
(§2) Specifically, by transfecting the pCHO1.0 vector (Invitrogen) with the human/cynomolgus CD40 cDNA cloned into the MCS and followed by applying pressure selection, CHO-S cells overexpressing human/cynomolgus CD40 were generated. The expanded CD40 overexpressing cells were adjusted to the appropriate cell density and plated on 96-well flow plate. After centrifugation, the cells were incubated with a gradient-diluted sample at 4° C. for 30 minutes. and the cells were then washed twice with PBS, and followed by incubation with a fluorescent secondary antibody diluted to the appropriate concentration, at 4° C. for 30 min. Following two washes with PBS, cells were resuspended in PBS and fluorescent signals were detection on the CytoFlex flow cytometer to calculate the corresponding MFI.

Assay [4] deals with T4, cynomolgus CD40 overexpressed on CHO-S cells (cynomolgus, UniProt G7PG38 21-278).
T4 construct: whole, on cells; also called cynomolgus CD40 expressing CHO cells
The assay can be described thus: flow cytometry on CHO-S cells overexpressing cynomolgus CD40. On the procedure:
as §2

Assay [5] concerns the target T2, human CD40-Fc protein. Description: BLI (ForteBio), IgG on AHQ sensor, 100 nM CD40-Fc in solution, bivalent, 1:1 model. On the procedure: (§3) The antibody-loaded sensor was further incubated in a high concentration of irrelevant intact antibody solution for 10 minutes to saturate and block the Fc binding sites on the AHQ sensor. The blocked sensor was then incubated with 100 nM CD40-Fc antigen until a plateau was reached, and then the sensor was transferred to the analysis buffer for at least 2 minutes for dissociation rate measurement. Kinetic analysis was performed using a 1:1 binding model.

Assay [6] addresses T1, cynomolgus CD40-Fc protein. Described as above. The procedure:
as §3

Where a chain is given by its changes, count along the chain named.

T2 sequence (P25942 21-193 limits assumed): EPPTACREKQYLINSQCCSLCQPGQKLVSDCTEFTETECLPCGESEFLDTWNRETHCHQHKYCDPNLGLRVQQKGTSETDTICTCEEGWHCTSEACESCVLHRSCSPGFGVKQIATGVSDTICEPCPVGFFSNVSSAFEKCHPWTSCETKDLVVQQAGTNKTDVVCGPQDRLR
T3 sequence (P25942 21-277 limits assumed): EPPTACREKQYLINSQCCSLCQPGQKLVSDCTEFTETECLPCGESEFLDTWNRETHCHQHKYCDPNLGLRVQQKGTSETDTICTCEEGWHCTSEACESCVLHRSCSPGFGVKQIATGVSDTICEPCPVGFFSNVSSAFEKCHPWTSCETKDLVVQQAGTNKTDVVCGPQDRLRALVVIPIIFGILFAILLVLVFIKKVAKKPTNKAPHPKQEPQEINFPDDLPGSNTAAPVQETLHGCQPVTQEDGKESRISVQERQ

B1: ADI-55136 Fab (Fab, V domains shown)
VH: QVQLVESGGGVVQPGRSLRLSCAASGFTFSSYGMHWVRQAPGKGLEWVAVISYHASSKYYADSVKGRFTISRDNSKNTLYLQMNSLRAEDTAVYYCARDTSRGHDIWGQGTMVTVSS
VL: EIVLTQSPGTLSLSPGERATLSCRASQSVSSSYLAWYQQKPGQAPRLLIYGASSRATGIPDRFSGSGSGTDFTLTISRLEPEDFAVYYCQQYADYPPFTFGGGTKVEIK
In assay [1], B1 came in with a Kd of 78.1 nM.

B2: ADI-55144 Fab (Fab, V domains shown)
VH: B1 VH with S30E, S31K, H54E, A55G, S56T, S57K
VL: B1 VL with S31Y, R55L, A93S
Take B2: the Kd in assay [2] is 2.08 nM; in assay [1] it was 2.21 nM.

B3: ADI-55144-2 (antibody, human IgG1, kappa, V domains shown)
VH: B1 VH with S30E, S31K, H54E, A55G, S56T, S57K, D62E
VL: EIVLTQSPGTLSLSPGERATLSCRASQSVSYSYLAWYQQKPGQAPRLLIYGASSLATGIPDRFSGSGSGTDFTLTISRLEPEDFAVYYCQQYSDYPPFTFGGGTKVEIKR
As usually defined, the EC50 is the concentration at which the effect is half-maximal. Regarding B3, the EC50 in assay [3] is 11.5 nM; in assay [4] it was 15 nM.

B4: ADI-55140 (antibody, human IgG1, kappa, V domains shown)
VH: B1 VH with S30E, S31K, S52H, H54E, A55G, S57I
VL: B3 VL with S32D, S54T, L55R, T57N, Q90G, Q91E, S93A
Consider B4, for which the concentration giving a half-maximal response (EC50) turned out to be 6.3 nM in assay [3] and 8.53 nM in assay [4]. Besides, the Kd is 0.168 nM in assay [5] and 0.23 nM in assay [6].

B5: ADI-55147 (antibody, human IgG1, kappa, V domains shown)
VH: B1 VH with S30G, H54E, A55G, S56V, S57K
VL: B3 VL with S32D, S54A, L55R, T57N, S93A
As for B5, the EC50 in assay [3] stood at 7.49 nM; in assay [4] it was 4.49 nM. Besides, the Kd in assay [5] was determined as 0.139 nM; in assay [6], 0.208 nM.

B6: ADI-55144 (antibody, human IgG1, kappa, V domains shown)
VH: B1 VH with S30E, S31K, H54E, A55G, S56T, S57K
VL: B3 VL
For B6, the figures for the Kd in assay [5] and in assay [6] were 0.11 nM and 0.19 nM, respectively.

B7: ADI-55145 (antibody, human IgG1, kappa, V domains shown)
VH: B1 VH with S30E, S31K, H54E, A55G, S56T
VL: B3 VL with R24Q, S32N, L55R, A56N, T57N
In the case of B7, the EC50 in assay [3] is 5.26 nM; in assay [4], 6.66 nM. Moreover, the values for the Kd in assay [5] and in assay [6] were 0.169 nM and 0.226 nM, respectively.

B8: ADI-55142 Fab (Fab, V domains shown)
VH: B1 VH with S30E, S31K, H54E, A55G, S56E, S57K
VL: B1 VL with S31Y, T57N, Q90S, Q91D
On to B8, for which the Kd in assay [2] was 2.74 nM; in assay [1], 2.81 nM.

B9: ADI-55147 Fab (Fab, V domains shown)
VH: B1 VH with S30G, H54E, A55G, S56V, S57K
VL: B1 VL with S31Y, S32D, S54A, T57N
notes: also called Fab fragment of ADI-55147
As for B9, the Kd in assay [2] was 8.67 nM; in assay [1], 8.87 nM.

B10: ADI-55136 (antibody, human IgG1, kappa, V domains shown)
VH: B1 VH
VL: B3 VL with Y31S, L55R, S93A
The molecule B10 yielded an EC50 in assay [4] of 4.83 nM. The molecule also had a Kd in assay [6] of 0.383 nM.

B11: ADI-55142 (antibody, human IgG1, kappa, V domains shown)
VH: B1 VH with S30E, S31K, H54E, A55G, S56E, S57K
VL: B3 VL with L55R, T57N, Q90S, Q91D, S93A
Turning to B11, the EC50 in assay [3] turned out to be 7.69 nM; in assay [4], 6.32 nM. The figures for the Kd in assay [5] and in assay [6] were 0.146 nM and 0.193 nM, respectively.

B12: ADI-55145 Fab (Fab, V domains shown)
VH: B1 VH with S30E, S31K, H54E, A55G, S56T
VL: B1 VL with R24Q, S31Y, S32N, A56N, T57N, A93S
In the case of B12, the Kd turned out to be 5.88 nM in assay [2] and 5.72 nM in assay [1].

B13: ADI-55140 Fab (Fab, V domains shown)
VH: B1 VH with S30E, S31K, S52H, H54E, A55G, S57I
VL: B1 VL with S31Y, S32D, S54T, T57N, Q90G, Q91E
As to B13, the Kd in assay [2] came out at 5.77 nM; in assay [1], 5.42 nM.

B14: ADI-55168 (antibody, human IgG1, kappa, V domains shown)
VH: EVQLVESGGGLVQPGRSLRLSCAASGFTFDTYAMHWVRQAPGKGLEWVSGISWSSGSIHYADSVKGRFTISRDNAKNSLYLQMNSLRAEDTAVYYCAKDPTATTGARGYFDLWGRGTLVTVSS
VL: DIQMTQSPSSVSASVGDRVTITCEASQVISSWLAWYQQKPGKAPKLLIYAASYLQSGVPSRFSGSGSGTDFTLTISSLQPEDFATYYCQQHSSFPPTFGGGTKVEIKR
For the molecule B14, the concentration giving a half-maximal response (EC50) in assay [3] worked out at 4.73 nM; in assay [4], 8.85 nM. The Kd worked out at 0.111 nM in assay [5] and 0.122 nM in assay [6].

B15: ADI-55168 Fab (Fab, V domains shown)
VH: B14 VH
VL: DIQMTQSPSSVSASVGDRVTITCEASQVISSWLAWYQQKPGKAPKLLIYAASYLQSGVPSRFSGSGSGTDFTLTISSLQPEDFATYYCQQHSSFPPTFGGGTKVEIK
Regarding B15, the Kd in assay [2] stood at 0.988 nM; in assay [1] it was 0.586 nM.

B16: ADI-55164 Fab (Fab, V domains shown)
VH: B14 VH with T31D, G56D
VL: B15 VL with E24R, Q27K, Q55E
notes: also called Fab fragment of ADI-55164
As for B16, the results for the Kd in assay [2] and in assay [1] were 0.663 nM and 0.72 nM, respectively.

B17: ADI-55164 (antibody, human IgG1, kappa, V domains shown)
VH: B14 VH with T31D, G56D
VL: B14 VL with E24R, Q27K, Q55E
B17: the EC50 in assay [3] came out at 5.47 nM; in assay [4], 8.06 nM. For the same molecule, the Kd in assay [5] worked out at 0.1 nM; in assay [6] it was 0.117 nM.

B18: ADI-47720 Fab (Fab, V domains shown)
VH: B14 VH with T31D, H59G
VL: B15 VL with E24R, V28G, Y53S, H91R, S92A
In the case of B18, the Kd amounted to 152 nM in assay [2] and 263 nM in assay [1].

B19: ADI-47741 (antibody, human IgG1, kappa, V domains shown)
VH: QVQLQESGPGLVKPSETLSLTCTVSGGSISSYYWSWIRQPPGKGLEWIGSIYYSGSTNYNPSLKSRVTISVDTSKNQFSLKLSSVTAADTAVYYCARDANYYKWHPYWGQGTLVTVSS
VL: EIVLTQSPGTLSLSPGERATLSCRASQSVSSDYLAWYQQKPGQAPRLLIYGASSRATGIPDRFSGSGSGTDFTLTISRLEPEDFAVYYCQQVLSYPPTFGGGTKVEIKR
As to B19, the EC50 in assay [4] amounted to 17.9 nM. The Kd in assay [6] worked out at 0.559 nM.

B20: ADI-47741 Fab (Fab, V domains shown)
VH: B19 VH
VL: EIVLTQSPGTLSLSPGERATLSCRASQSVSSDYLAWYQQKPGQAPRLLIYGASSRATGIPDRFSGSGSGTDFTLTISRLEPEDFAVYYCQQVLSYPPTFGGGTKVEIK
As for B20, in assay [1], the Kd was determined as 71 nM.

The values are drawn from patent US20260265391A1 (BIOTHEUS, published 2026).
